This test addresses T1, CMG2 (UniProt P58335 34-489, limits assumed).
T1 construct: whole, on cells; also called ANTXR2; CHO/CMG2
The test is described as follows: flow cytometry on CHO/CMG2 cells.

T1 sequence (P58335 34-489 limits assumed): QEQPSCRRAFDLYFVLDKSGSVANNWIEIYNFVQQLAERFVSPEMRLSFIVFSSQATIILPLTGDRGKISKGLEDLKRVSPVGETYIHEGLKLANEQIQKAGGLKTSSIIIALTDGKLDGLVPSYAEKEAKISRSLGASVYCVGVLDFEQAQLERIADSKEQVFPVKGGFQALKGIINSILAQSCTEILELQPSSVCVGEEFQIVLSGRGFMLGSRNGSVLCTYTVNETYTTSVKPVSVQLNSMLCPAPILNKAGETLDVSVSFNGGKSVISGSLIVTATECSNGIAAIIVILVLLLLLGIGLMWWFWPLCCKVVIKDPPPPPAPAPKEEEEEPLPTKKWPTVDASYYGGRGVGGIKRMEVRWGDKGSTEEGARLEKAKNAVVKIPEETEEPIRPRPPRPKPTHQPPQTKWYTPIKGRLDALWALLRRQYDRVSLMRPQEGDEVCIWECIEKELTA

B1: AF334 anti-TEM8 monoclonal antibody (antibody, V domains shown)
VH: QVKLEESGAELVRPGVSVKISCKGSGYTFTDYAMHWVKQSHAKSLEWIGVISTYFGDATYNQKFKGKATMTVDKSSSTAYMELARLTSEDSAIYYCAREDYVPFAYWGQGTLVTVSA
VL: DIVMTQTPPSVPVTPGESVSISCRSSKSLLHSNGNTYLYWFLQRPGQSPQLLIYRMSNLASGVPDRFSGSGSGTAFTLRISRVEAEDVGVYYCMQHLEYPFTFGSGTKLEIKR
On to B1, for which the binding result was “no binding”.

For the origin of these results see US20160319016A1 (GOVERNMENT OF THE UNITED STATES OF AMERICA AS REPRESENTED …, published 2016).
